As a reminder, the Kd is the constant that tells how readily two partners part at equilibrium. Lower therefore signals tighter binding. A word on the koff: it is the rate constant with which the complex falls apart. Higher therefore signals a short-lived complex. One may read the kon as the rate constant with which the complex forms. High values mean faster complex formation, low ones slower complex formation. By EC50 (read off the curve) is commonly meant the concentration at which the effect is half-maximal.

First the molecules themselves.
T1: mouse 4-1BB extracellular domain, His tag (mouse, UniProt P20334 24-187)
T1 construct: extracellular domain; also called mPro1.ECD.His; not shown: His tag
T1 sequence (looked up): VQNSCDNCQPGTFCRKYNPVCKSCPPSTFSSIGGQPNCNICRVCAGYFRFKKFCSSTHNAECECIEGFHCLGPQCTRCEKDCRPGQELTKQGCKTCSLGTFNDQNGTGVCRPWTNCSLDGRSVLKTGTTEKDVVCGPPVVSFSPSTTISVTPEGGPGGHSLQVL

T2: OX40 (human, UniProt P43489 29-216, limits assumed)
T2 sequence (looked up): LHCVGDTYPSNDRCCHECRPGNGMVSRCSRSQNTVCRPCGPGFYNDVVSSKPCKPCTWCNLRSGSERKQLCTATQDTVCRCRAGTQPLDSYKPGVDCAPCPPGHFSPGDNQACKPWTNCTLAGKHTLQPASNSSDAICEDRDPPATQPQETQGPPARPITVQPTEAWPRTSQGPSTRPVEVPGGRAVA

T3: GITR (human, UniProt Q9Y5U5 26-161, limits assumed)
T3 sequence (looked up): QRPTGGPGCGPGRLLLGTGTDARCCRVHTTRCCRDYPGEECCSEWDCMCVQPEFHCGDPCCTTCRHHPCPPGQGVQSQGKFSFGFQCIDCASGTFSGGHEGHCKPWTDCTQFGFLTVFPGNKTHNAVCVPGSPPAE

B1: 2.19.8-u1-3-hIgG1L (antibody, V domains shown)
VH: QVQLVESGGGLVKPGGSLRLSCAASGFTFSDYFMSWIRQAPGKGLEWVSYISNAGSSKYYADSVKGRFTISRDNAKNSLYLQMNSLRAEDTAVYYCVRDPYSGSYSGWFDPWGQGTLVTVSS
VL: SYDLTQPPSVSVSPGQTASITCSGDDLGDKYTSWYQQKPGQSPVLVVYQDHKRPSGIPERFSGSNSGNTATLTISGTQAMDEADYYCQAWDKGIVVFGGGTKLTVL
notes: Fully human antibody
B2: 2.19.8-u1-3-hIgG4L (antibody, V domains shown)
VH: B1 VH
VL: B1 VL
B3: 2.27.16-u1-1-hIgG1L (antibody, V domains shown)
VH: QEQLQESGPGLVKPSQTLSLTCTVSGGSINSQGYYWSWIRQHPGKGLEWIGYIYDSGSAYYNPSLERRVAISLDTSKNQFSLNLNSVTVADTAVYYCARIVAAGRIDPWGQGTLVTVSS
VL: SYVLTQPPSVSVAPGQTARMTCGGDNIGIKIVHWYQQKAGQAPVLVVYDDNDRPSGIPDRFSGSNSGNTATLTISRVAAGDEADYYCQVWDRRSDHVVFGGGTKLTVL
notes: Fully human antibody
B4: 2.27.16-u1-1-hIgG4L (antibody, V domains shown)
VH: B3 VH
VL: B3 VL

One assay addresses T4, human 4-1BB extracellular domain, His tag (human, UniProt Q07011 24-186).
T4 construct: also called hPro1.ECD.His; not shown: C-terminal His tag
The experiment in a line: SPR, Biacore T200; antibody captured on Protein G chip, 4-1BB ECD.His as analyte. The method, then:
(§1) Antibodies were characterized for affinity and binding kinetics to human, cynomolgus and mouse 4-1BB by SPR assay using Biacore T200 (GE). Protein G was pre-immobilized to a sensor chip (CMS), and anti-4-1BB antibodies were captured when injected to the chip. Various concentrations of human 4-1BB and running buffer were flowed through the sensor chip for an association phase, and followed by dissociation. The association and dissociation curve was analyzed using Biacore T200 Evaluation software Version 2.0.
On the technique in general: In SPR one partner is held on a chip, and binding of the other changes the refractive index at the surface.
Molecule B1 showed a Kd of 0.0257 nM, a koff of 6.48e-05 s⁻¹ and an on-rate (kon) of 2.52e+06 M⁻¹ s⁻¹.

As to B2, the Kd worked out at 0.0177 nM, the koff came out at 3.74e-05 s⁻¹ and the kon stood at 2.11e+06 M⁻¹ s⁻¹.

The target of another assay is T1, mouse 4-1BB extracellular domain, His …. The experiment in a line: SPR, Biacore T200; antibody captured on Protein G chip, mouse 4-1BB ECD.His as analyte. The method, then: as §1
The molecule B3 came in with a Kd of 8.49 nM, a koff of 0.00134 s⁻¹ and a kon of 158000 M⁻¹ s⁻¹.

B4: the Kd is 6.27 nM, the koff was determined as 0.00136 s⁻¹ and the kon is 217000 M⁻¹ s⁻¹.

Molecule B1 gave an equilibrium dissociation constant (Kd) of 26.1 nM, a koff of 0.975 s⁻¹ and a kon of 3.73e+07 M⁻¹ s⁻¹.

In turn, B2 yielded a Kd of 18.4 nM, an off-rate (koff) of 0.215 s⁻¹ and an on-rate constant (kon) of 1.17e+07 M⁻¹ s⁻¹.

The target of a further assay is T5, cynomolgus 4-1BB extracellular domain, His tag (cynomolgus, UniProt A9YYE7 24-186).
T5 construct: extracellular domain; also called cynoPro1.ECD.His; ACRO-41B-C52H4; not shown: His tag
The experiment in a line: SPR, Biacore T200; antibody captured on Protein G chip, cynomolgus 4-1BB ECD.His as analyte. The method, then:
as §1
In the case of B3, the equilibrium dissociation constant (Kd) is 0.142 nM, the koff came out at 3.07e-05 s⁻¹ and the kon was 217000 M⁻¹ s⁻¹.

B4 came in with an equilibrium dissociation constant (Kd) of 0.439 nM, an off-rate (koff) of 0.000101 s⁻¹ and a kon of 230000 M⁻¹ s⁻¹.

B1: the affinity, expressed as Kd, was 0.0164 nM; the off-rate (koff) stood at 2.96e-05 s⁻¹; the kon was found to be 1.81e+06 M⁻¹ s⁻¹.

B2 gave a dissociation constant (Kd) of 0.0158 nM, a koff of 2.93e-05 s⁻¹ and a kon of 1.86e+06 M⁻¹ s⁻¹.

The next assay deals with T6, human 4-1BB, full-length, on cells (human, UniProt Q07011 24-255).
T6 construct: also called human 4-1BB expressing CHO-K1 cells; cell surface 4-1BB
The experiment in a line: flow cytometry on human 4-1BB-expressing CHO-K1 cells, PE goat anti-human IgG Fc, MFI. The method, then: Human 4-1BB-expressing CHO-K1 cells were transferred into 96-well U-bottom plates at a density of 1×10⁵ cells/well. […] After washing, the secondary antibody, PE labeled Goat anti-human IgG Fc Fragment (Jackson ImmunoResearch), was applied and incubated with cells at 4° C. in the dark for 1 h. The cells were then washed and re-suspended in PBS and then analyzed by a flow cytometer (BD).
For orientation: A flow cytometer gives signals particle by particle.
Take B1: the half-maximal effective concentration (EC50 (read off the curve)) was about 0.07 nM.

For B2, the “EC50 (read off the curve)” value is about 0.06 nM.

For the next assay, the target named is T7, mouse 4-1BB, full-length, on cells (mouse, UniProt P20334 24-256).
T7 construct: whole, on cells; also called murine 4-1BB expressing CHO-K1 cells
The experiment in a line: flow cytometry on murine 4-1BB-expressing CHO-K1 cells, PE goat anti-human IgG Fc, MFI. How it is done:
Murine 4-1BB-expressing CHO-K1 cells were transferred into 96-well U-bottom plates at a density of 1×10⁵ cells/well. Testing antibodies were serially diluted in PBS containing 1% BSA, and incubated with cells at 4° C. for 1 h. After washing, the secondary antibody, PE labeled Goat anti-human IgG Fc Fragment (Jackson ImmunoResearch), was applied and incubated with cells at 4° C. in the dark for 1 h. The cells were then washed and resuspended in PBS and then analyzed by flow cytometer (BD).
Consider B3, for which the “EC50 (read off the curve)” value was about 0.9 nM.

Consider B4, for which the half-maximal effective concentration (EC50 (read off the curve)) is about 0.8 nM.

For a further assay, the target named is T2, OX40. Description: ELISA on plate-coated antigen, HRP goat anti-human IgG Fc, OD450-OD540; antibody concentration not given. How it is done:
(§2) Cross-reactivity to TNFR family members OX40, CD40 and GITR was determined by ELISA. Plates (Nunc) were coated with OX40, CD40 or GITR overnight at 4° C. After blocking and washing, anti-4-1BB antibodies were added to the plates and incubated at room temperature for 1 h. The plates were then washed and subsequently incubated with secondary antibody, HRP Conjugated Goat anti-human IgG Fc Fragment antibody (Bethyl), for 45 min. After washing, TMB substrate was added and the color reaction was stopped by 2M HCl. The absorbance at 450 and 540 nm were read using a microplate reader (Molecular Device).
Background: An ELISA detects its analyte on a solid surface through an enzyme-linked reagent.
Take B3: the binding result is reported as “no binding”.

As for B4, the binding result is listed as “no binding”.

With B1, the binding result is on record as “no binding”.

As for B2, the binding result is given as “no binding”.

The next assay deals with CD40 (human, UniProt P25942 21-193, limits assumed). Described as above. The method, then:
as §2
Turning to B3, the binding result is “no binding”.

As for B4, the binding result was “no binding”.

Consider B1, for which the binding result is reported as “no binding”.

For the molecule B2, the binding result is recorded as “no binding”.

Another assay deals with T3, GITR. Described as above. How it is done:
as §2
As to B3, the binding result is “no binding”.

For the molecule B4, the binding result was “no binding”.

For B1, the binding result is “no binding”.

Consider B2, for which the binding result was “no binding”.

For a further assay, the target named is human 4-1BB protein (coated on ELISA plates) (human, UniProt Q07011 24-186, limits assumed). The experiment in a line: competition ELISA on plate-coated human 4-1BB; competitor: biotinylated BMK4, detected with streptavidin-HRP, OD450-OD540. How it is done:
Plates were pre-coated with human 4-1BB protein at 4° C. overnight. After blocking, various concentrations of testing antibodies were pre-mixed with biotinylated BMK antibodies and added to the plates. The plates were incubated at ambient temperature for 1 hour. The binding of the BMK antibodies to human 4-1BB was detected by streptavidin-HRP. The color was developed by dispensing TMB substrate, and then stopped by 2N HCl. The absorbance was read at 450 nm and […] using a microplate spectrophotometer.
As to B1, the “IC50 (read off the curve)” value was about 0.9 nM.

Turning to B2, the “IC50 (read off the curve)” value was about 1 nM.

For the origin of these results see patent publication US20210230287A1 (WUXI BIOLOGICS SHANGHAI, published 2021).
